Data set [1] addresses chimeric PriB-SSBc protein (KpPriB1-98 fused KpSSB112-174) (Klebsiella pneumoniae) (UniProt A6THB2). In words: SEC; purified PriB-SSBc 4 mg/mL in 20 mM HEPES, 100 mM NaCl, pH 7.0 on a Superdex 200 prep grade column, calibrated with standard proteins. Background: In gel filtration, larger molecules generally elute earlier.
Data set [2] has as its target T1, KpPriB (Klebsiella pneumoniae, UniProt A6THB2 1-104). The experiment in a line: EMSA; monomer conc.; 1 complex; EMSA: 20 mM Tris-HCl pH 8.0, 100 mM NaCl, 25 C, 30 min, 1.7 nM 32P-ssDNA; 8% native PAGE in TBE at 4 C. Conditions: protein: recombinant; tags: none (tag-free); chain copies: 2; label: 5'-32P.
Data set [3] has as its target T2, KpSSB (Klebsiella pneumoniae, UniProt A6TGW7 1-174). The data set is described as above. Particulars: protein: recombinant; tags: none (tag-free); chain copies: 4; label: 5'-32P.
The target in data set [4] is T2, KpSSB. In words: EMSA; monomer conc.; 2 complexes; EMSA: 20 mM Tris-HCl pH 8.0, 100 mM NaCl, 25 C, 30 min, 1.7 nM 32P-ssDNA; 8% native PAGE in TBE at 4 C. Particulars: protein: recombinant; tags: none (tag-free); chain copies: 4; label: 5'-32P.
Data set [5] deals with T2, KpSSB. The experiment in a line: EMSA; ND; no stable complex up to 5 uM protein; EMSA: 20 mM Tris-HCl pH 8.0, 100 mM NaCl, 25 C, 30 min, 1.7 nM 32P-ssDNA; 8% native PAGE in TBE at 4 C. Particulars: protein: recombinant; tags: none (tag-free); chain copies: 4; label: 5'-32P.
Data set [6] concerns the molecule itself. In words: crystal structure; KpSSB without DNA, 14 mg/mL, hanging drop vapor diffusion, 20% PEG 3350, 0.2 M magnesium acetate tetrahydrate, pH 6.5; four monomers per asymmetric unit.
In data set [7] the target is T2, KpSSB. In words: EMSA; ND; up to 5 uM protein; EMSA: 20 mM Tris-HCl pH 8.0, 100 mM NaCl, 25 C, 30 min, 1.7 nM 32P-ssDNA; 8% native PAGE in TBE at 4 C. Conditions: protein: recombinant; tags: none (tag-free); chain copies: 4; label: 5'-32P. In general terms: Mobility shift assays separate free from complexed probe on a gel.
Data set [8] has as its target T1, KpPriB. In words: EMSA; ND; up to 50 uM protein; EMSA: 20 mM Tris-HCl pH 8.0, 100 mM NaCl, 25 C, 30 min, 1.7 nM 32P-ssDNA; 8% native PAGE in TBE at 4 C. Particulars: protein: recombinant; tags: none (tag-free); chain copies: 2; label: 5'-32P.

Broadly, the stoichiometry N is a count of units in the complex or per binding partner. The molecule “chimeric PriB-SSBc protein (KpPriB1-98 fused KpSSB112-174) (from UniProt A6THB2 1-98; A6TGW7 112-174)” registered a stoichiometry N in data set [1] of 2.

B1: dT30 (ssDNA)
DNA: TTTTTTTTTTTTTTTTTTTTTTTTTTTTTT
Consider B1, for which the “apparent K (half saturation)” value with KpPriB [2] came to 9.2 ± 0.8 µM; with KpSSB [3] it was 550 ± 40 nM.

B2: dT55 (ssDNA)
DNA: TTTTTTTTTTTTTTTTTTTTTTTTTTTTTTTTTTTTTTTTTTTTTTTTTTTTTTT
On to B2, for which the “apparent K (half saturation)” value with KpPriB [2] was 4.9 ± 0.5 µM; with KpSSB [4] it was 130 ± 10 nM.

B3: dT60 (ssDNA)
DNA: TTTTTTTTTTTTTTTTTTTTTTTTTTTTTTTTTTTTTTTTTTTTTTTTTTTTTTTTTTTT
With B3, the “apparent K (half saturation)” value with KpPriB [2] is 4.8 ± 0.5 µM; in the data set with KpSSB [4] it was 50 ± 10 nM.

B4: dT20 (ssDNA)
DNA: TTTTTTTTTTTTTTTTTTTT
Turning to B4, the binding result with KpSSB [5] is reported as “no binding”.

B5: dT25 (ssDNA)
DNA: TTTTTTTTTTTTTTTTTTTTTTTTT
On to B5, for which the “apparent K (half saturation)” value with KpPriB [2] came out at 14.1 ± 1 µM; in the data set with KpSSB [3], 580 ± 50 nM.

B6: dT40 (ssDNA)
DNA: TTTTTTTTTTTTTTTTTTTTTTTTTTTTTTTTTTTTTTTT
Take B6: the entries for the “apparent K (half saturation)” value with KpPriB [2] and with KpSSB [3] were 9.1 ± 0.8 µM and 230 ± 10 nM, respectively.

B7: Klebsiella pneumoniae SSB (natural protein, UniProt A6TGW7 1-174, looked up)
chain: MASRGVNKVILVGNLGQDPEVRYMPSGGAVANFTLATSESWRDKQTGEMKEQTEWHRVVLFGKLAEVAGEYLRKGSQVYIEGQLRTRKWTDQSGQDKYTTEVVVNVGGTMQMLGGRQGGGAPAGGGQQQGGWGQPQQPQGGNQFSGGAQSRPQQQAPAAPSNEPPMDFDDDIPF
notes: amino acids 120-174 not observed in the crystal structure; the gene spans 525 nt; also called KpSSB; source: E. coli, purified (ammonia sulfate precipitation, Q and Heparin columns)
Turning to B7, the “stoichiometry N” value in data set [6] stood at 4.

B8: dT15 (ssDNA)
DNA: TTTTTTTTTTTTTTT
B8: the binding result in the data set with KpSSB [7] and with KpPriB [8] was “no binding” throughout.

B9: dT50 (ssDNA)
DNA: TTTTTTTTTTTTTTTTTTTTTTTTTTTTTTTTTTTTTTTTTTTTTTTTTT
Consider B9, for which the “apparent K (half saturation)” value in the data set with KpPriB [2] is 5.6 ± 0.3 µM; with KpSSB [3], 170 ± 20 nM.
